Target: human GLP-1 receptor (human) (UniProt P43220)
Test: cell-based or functional assay

human GLP-1 receptor (human), sequence (P43220 24-463): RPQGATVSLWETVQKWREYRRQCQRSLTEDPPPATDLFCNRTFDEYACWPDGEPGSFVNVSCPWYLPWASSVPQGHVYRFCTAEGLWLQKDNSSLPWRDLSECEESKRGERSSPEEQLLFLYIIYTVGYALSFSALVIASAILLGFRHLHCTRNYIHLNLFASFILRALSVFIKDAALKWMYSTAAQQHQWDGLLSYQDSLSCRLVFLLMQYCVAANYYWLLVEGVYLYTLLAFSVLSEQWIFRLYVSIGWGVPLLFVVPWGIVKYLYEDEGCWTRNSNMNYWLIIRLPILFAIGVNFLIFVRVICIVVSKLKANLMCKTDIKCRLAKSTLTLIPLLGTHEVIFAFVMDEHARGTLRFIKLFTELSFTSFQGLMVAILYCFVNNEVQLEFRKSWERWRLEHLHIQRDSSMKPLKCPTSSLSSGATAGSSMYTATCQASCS

Q: How did the Human GLP1R EC50 turn out when Dulaglutide (Fc fusion) was run?
A: Its Human GLP1R EC50 is 0.035 nM.
